Reference: the supplement of paper PMC9732359
± gives the uncertainty stated by the source.

Experiment: protein stability index of a GFP-peptide fusion (yeast GPS) (PSI 1-4); higher = more stable; sorted into four equal gates, so the index is relative within each strain
Method in brief: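 Tiled 17-residue peptides from yeast proteins were fused downstream of GFP on a plasmid that also expresses Cherry, and the pooled library was carried in yeast. Mid-log cultures grown in leucine-free medium were sorted into four equal gates by GFP/Cherry fluorescence ratio. Plasmids from each gate were PCR-amplified and Illumina-sequenced, and reads were assigned to strains by barcodes. Each peptide's protein stability index is the sum, over gates, of the gate's read frequency multiplied by its gate number.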

| Sequence | protein stability index (doa10∆) | protein stability index (pdr5∆) | protein stability index (san1∆) | protein stability index (ubr1∆) |
| --- | --- | --- | --- | --- |
| PKIETNVYVGMTDMQIQ [ISW2] | 2.96 ± 0.091 | 2.99 ± 0.091 | 3.04 ± 0.069 | 3.29 ± 0.11 |
| PKNVPTSKWLNSITSGG [YDL116W/NUP84] | 2.35 ± 0.072 | 2.56 ± 0.068 | 2.23 ± 0.14 | 2.6 ± 0.064 |
| PKPLKFLRPTYPDLCSI [RPN1] | 2.61 ± 0.07 | 2.69 ± 0.067 | 2.4 ± 0.06 | 2.5 ± 0.042 |
| PKSGIDIFVYLTYDKDL [MTR3] | 1.9 ± 0.062 | 1.58 ± 0.052 | 1.78 ± 0.11 | 1.7 ± 0.053 |
| PKSLNSNININVNNNNI [SWI1] | 3.03 ± 0.14 | 2.63 ± 0.12 | 3.04 ± 0.066 | 2.81 ± 0.098 |
| PKTELTKGDSTPVQPDL [YAR002W/NUP60] | 3.16 ± 0.055 | 3.14 ± 0.067 | 3.08 ± 0.072 | 3.1 ± 0.037 |
| PLIIVSDGQSRVKDIHL [RET1] | 2.88 ± 0.3 | 3.58 ± 0.24 | 3.05 ± 0.2 | 2.79 ± 0.15 |
| PLIKKIKYEPRFEKAVK [SMC3] | 2.75 ± 0.072 | 2.72 ± 0.098 | 2.53 ± 0.13 | 2.48 ± 0.079 |
| PLKTQTKNGTPNPNNMK [GAL11] | 2.98 ± 0.085 | 2.94 ± 0.084 | 2.73 ± 0.046 | 2.95 ± 0.043 |
| PLLAQLFKTLFKKLTKD [RPB2] | 2.65 ± 0.04 | 1.29 ± 0.039 | 1.18 ± 0.092 | 1.16 ± 0.03 |
| PLLEAKKLVWPLHLIFA [SSN2] | 1.61 ± 0.083 | 1.29 ± 0.059 | 1.24 ± 0.11 | 1.19 ± 0.06 |
| PLLSKKERLVRDKKEKK [SMB1] | 3.37 ± 0.24 | 3 ± 0.11 | 2.72 ± 0.18 | 3.15 ± 0.17 |
| PLSAGFNYGKLPLPPSV [SIN4] | 2.75 ± 0.074 | 2.9 ± 0.068 | 2.84 ± 0.038 | 2.93 ± 0.051 |
| PLSGLLFKNYRFNFISK [YMR129W/POM152] | 2.85 ± 0.11 | 2.17 ± 0.07 | 1.73 ± 0.098 | 2.25 ± 0.094 |
| PLSNIKALLFFNNEKET [RPN12] | 1.46 ± 0.056 | 1.4 ± 0.062 | 1.2 ± 0.088 | 1.13 ± 0.053 |
| PLSVATELMNRSPLVTP [SRP72] | 2.14 ± 0.068 | 2.48 ± 0.069 | 2.4 ± 0.06 | 2.03 ± 0.06 |
| PLVQADLYEQIGIDPPR [RPT3] | 2.48 ± 0.074 | 2.83 ± 0.1 | 2.63 ± 0.066 | 2.83 ± 0.081 |
| PMDEETKLYFDVNEKIR [RPC25] | 3.01 ± 0.098 | 3.03 ± 0.086 | 3.01 ± 0.068 | 3.1 ± 0.1 |
| PMIKAEETPSKTNKISI [NUT1] | 2.52 ± 0.057 | 2.8 ± 0.049 | 2.6 ± 0.06 | 2.84 ± 0.051 |
| PMNAPTPAMIPYPGSPM [DSN1] | 2.79 ± 0.044 | 2.76 ± 0.05 | 2.99 ± 0.042 | 3.01 ± 0.034 |
| PNCLFILKLLNGFMESA [SOH1] | 1.9 ± 0.17 | 1.54 ± 0.12 | 1.68 ± 0.18 | 1.44 ± 0.18 |
| PNGHISTKKIQVATKYA [YMR129W/POM152] | 1.86 ± 0.082 | 2.24 ± 0.05 | 1.75 ± 0.067 | 2 ± 0.043 |

| Sequence | protein stability index (doa10∆) | protein stability index (pdr5∆) | protein stability index (san1∆) | protein stability index (ubr1∆) |
| --- | --- | --- | --- | --- |
| PNGSGKSNVIDSMLFVF [SMC4] | 2.87 ± 0.048 | 2.87 ± 0.051 | 2.68 ± 0.055 | 2.96 ± 0.037 |
| PNLATFISSGTSLLDSL [YJL039C/NUP192] | 2.23 ± 0.047 | 2.6 ± 0.046 | 2.23 ± 0.057 | 2.1 ± 0.037 |
| PNTKDAMSLYHSPFPFN [PRP8] | 2.64 ± 0.049 | 2.55 ± 0.053 | 2.63 ± 0.06 | 2.71 ± 0.036 |
| PNYLHLVSSYLNKSDLL [YML103C/NUP188] | 1.96 ± 0.038 | 2.27 ± 0.034 | 2.21 ± 0.04 | 1.8 ± 0.031 |
| PPDIHPNLGPQLWLNSS [GRR1] | 3.28 ± 0.089 | 3.36 ± 0.089 | 3.21 ± 0.066 | 3.14 ± 0.067 |
| PPEVTSSNCHVRQKIKT [POP1] | 3.05 ± 0.071 | 3.1 ± 0.072 | 2.78 ± 0.073 | 3.01 ± 0.045 |
| PPKEGNYEIVFDTVSNK [YMR129W/POM152] | 3.11 ± 0.086 | 3.13 ± 0.095 | 3.29 ± 0.26 | 3 ± 0.1 |
| PPLTSQYSTRHDAPRGL [SWI3] | 3.13 ± 0.047 | 3.19 ± 0.06 | 3.14 ± 0.05 | 3.21 ± 0.045 |
| PPNNARRTYNTLEDKFL [ISW2] | 2.09 ± 0.04 | 2.02 ± 0.045 | 1.6 ± 0.11 | 1.95 ± 0.035 |
| PPQDAEGWFYKRAASVA [RPS19A] | 2.9 ± 0.27 | 1.42 ± 0.11 | 1.53 ± 0.14 | 1.56 ± 0.11 |
| PQEESVSPNISSASPSA [SIR3] | 2.99 ± 0.048 | 3.15 ± 0.046 | 3.01 ± 0.034 | 3.03 ± 0.028 |
| PQIAQLPLATQQQVLNK [SNF5] | 1.94 ± 0.074 | 2.3 ± 0.075 | 2 ± 0.13 | 2.17 ± 0.068 |
| PQIVKLFDISREALSGR [ECM29] | 3.44 ± 0.15 | 3.26 ± 0.1 | 3.59 ± 0.081 | 2.95 ± 0.054 |
| PQKNLLLKGPASTVAKT [YOR098C/NUP1] | 2.73 ± 0.057 | 2.94 ± 0.041 | 2.68 ± 0.054 | 2.83 ± 0.055 |
| PQLTFTHVANFMNDAAA [YML103C/NUP188] | 3.04 ± 0.094 | 3 ± 0.082 | 2.7 ± 0.068 | 2.95 ± 0.05 |
| PQNGNINNNINIPQQQQ [GAL11] | 3.32 ± 0.095 | 3.02 ± 0.12 | 3.21 ± 0.082 | 2.97 ± 0.077 |
| PQNMLFEGCYYTPEESA [RPC25] |  | 2.42 ± 0.21 | 2.55 ± 0.21 | 2.5 ± 0.12 |
| PQQSRYISFIKDDRFVP [RPN2] | 2.67 ± 0.055 | 2.87 ± 0.036 | 2.98 ± 0.044 | 3.11 ± 0.035 |
| PQRCTFAFEAIDPRHLA [POP1] | 2.55 ± 0.095 | 3.01 ± 0.077 | 2.73 ± 0.087 | 3.1 ± 0.051 |
| PQVKIREASKDNVDFIL [RPB3] | 2.55 ± 0.065 | 2.12 ± 0.033 | 2.88 ± 0.073 | 1.77 ± 0.037 |
| PRGLRSLTTVWAEHLSD [RPL3] | 2.74 ± 0.12 | 2.83 ± 0.17 |  | 2.72 ± 0.16 |
